Laboratory results from patent publication US20240317847A1 (Bayer, published 2024).
Each block holds one binder with its values, some of them ahead of it.

What was measured:
cynomolgus IL-11 [1] = biological target: T1, cynomolgus IL-11 (cynomolgus, UniProt P20808 22-199); experiment: SPR (Biacore), 25 C, antibody captured via anti-Fc, IL-11 as analyte, determined in steady state; SPR at 25 C, determined in steady state
T1 construct: Invigate recombinant protein; also called cIL11; Macaca IL-11
T1 sequence: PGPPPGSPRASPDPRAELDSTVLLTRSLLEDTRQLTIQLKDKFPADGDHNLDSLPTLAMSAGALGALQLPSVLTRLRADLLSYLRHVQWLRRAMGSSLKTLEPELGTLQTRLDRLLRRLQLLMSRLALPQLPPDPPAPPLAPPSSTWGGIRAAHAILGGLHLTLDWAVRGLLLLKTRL
Protocol: (§1) To assess the binding kinetics and affinity of anti-IL-11 bispecific antibodies as well as their species cross-reactivity profile, binding assays were conducted using surface plasmon resonance (SPR). […] Antibodies were captured either via anti-human Fc IgGs (“Human antibody capture kit”, Order No. BR100839, Cytiva) or via anti-mouse Fc IgGs (“Mouse antibody capture kit, Order No. BR100383, Cytiva) covalently amine coupled to a Series S CM5 sensor chip (Cytiva) depending on the isotype. The amine coupling was carried out according to the manufacturer's instructions using 1-ethyl-3-(3-dimethylaminopropyl) carbodiimide hydrochloride (EDC), N-hydroxysuccinimide (NHS) and ethanolamine HCl, pH 8.5 (“Amine Coupling Kit” BR-1000-50, Cytiva.). Human, mouse, cynomolgus or rat IL-11 was used as analyte at several dilutions within the concentration range from 0.05-200 nM. For binding assays with only one concentration 200 nM IL-11 was used. The sensor surface was regenerated with glycine pH 1.7 after each antigen injection. Obtained sensorgrams were double referenced (subtraction of reference flow cell signal and buffer injection) and were fitted to a 1:1 Langmuir binding model to derive kinetic data using the Biacore T200 Evaluation software or the Biacore Insight software.
(§2) If no value is reported, there was either no binding or very low binding and multiphasic binding behavior.

human IL-11 = biological target: T2, human IL-11 (human, UniProt P20809 22-199); experiment: as above
T2 construct: Invigate recombinant protein; biotinylated when immobilized in the Di-complex ELISA; also called hIL11; hIL-11
T2 sequence: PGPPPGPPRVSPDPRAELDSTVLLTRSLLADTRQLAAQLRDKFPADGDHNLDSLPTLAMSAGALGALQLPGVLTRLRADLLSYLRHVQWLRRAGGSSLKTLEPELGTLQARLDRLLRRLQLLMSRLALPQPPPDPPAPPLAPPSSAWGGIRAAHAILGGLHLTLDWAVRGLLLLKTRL
Protocol: as §1, §2

rat IL-11 [2] = biological target: T3, rat IL-11 (rat, UniProt Q99MF5 22-199); experiment: as above
T3 construct: Invigate recombinant protein; also called rIL11
T3 sequence: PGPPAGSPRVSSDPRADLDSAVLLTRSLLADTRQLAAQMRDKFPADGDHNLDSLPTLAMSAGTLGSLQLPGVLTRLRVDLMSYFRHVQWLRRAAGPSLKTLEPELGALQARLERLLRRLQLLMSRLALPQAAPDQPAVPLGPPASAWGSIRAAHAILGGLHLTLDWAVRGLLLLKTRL
Protocol: as §1, §2

human IL2Ra = biological target: T4, human IL2Ra (human, UniProt P01589 22-240, limits assumed); experiment: IL2Ra direct binding ELISA, signal ratio to isotype control
T4 construct: bought protein, coated on the plate; also called hIL2RA; IL-2 receptor alpha
T4 sequence (looked up): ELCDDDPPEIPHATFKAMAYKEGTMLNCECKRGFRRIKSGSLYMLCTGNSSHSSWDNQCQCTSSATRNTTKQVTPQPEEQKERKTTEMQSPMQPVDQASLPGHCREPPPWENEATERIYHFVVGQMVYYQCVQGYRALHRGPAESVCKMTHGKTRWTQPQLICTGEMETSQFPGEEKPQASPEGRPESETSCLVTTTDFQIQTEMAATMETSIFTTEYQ
Procedure, shortened: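 Plates coated overnight at 4-8 °C with IL2RA at 1 or 0 μg/ml, blocked with SmartBlock. Antibody dilution series from 1E-7 to 2E-13 M bound 90 min at room temperature, detected with HRP anti-mouse IgG and Amplex red/H2O2; fluorescence at 535/590 nm.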

cynomolgus IL-11 [3] = biological target: T1, cynomolgus IL-11; experiment: SPR (Biacore), 25 C, antibody captured via anti-Fc, IL-11 as analyte
Protocol: as §1, §2

murine IL-11 = biological target: T5, murine IL-11 (mouse, UniProt P47873 22-199); experiment: as above
T5 construct: Invigate recombinant protein; biotinylated when immobilized in the Di-complex ELISA; also called mIL11; mIL-11
T5 sequence: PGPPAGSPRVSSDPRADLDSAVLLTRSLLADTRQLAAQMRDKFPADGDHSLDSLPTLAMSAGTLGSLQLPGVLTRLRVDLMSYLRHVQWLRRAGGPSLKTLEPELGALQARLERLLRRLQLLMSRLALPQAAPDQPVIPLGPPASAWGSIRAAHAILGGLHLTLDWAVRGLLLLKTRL
Protocol: as §1, §2

rat IL-11 [4] = biological target: T3, rat IL-11; experiment: as above
Protocol: as §1, §2

- Kd (cynomolgus IL-11 [1]): 56 nM
- Kd (human IL-11): 13 nM
- Kd (rat IL-11 [2]): 34 nM
B1: TPP-18087 (antibody, mouse IgG1, V domains shown)
VH: EVQLLESGGGLVQPGGSLRLSCAASGFTFSHYDMNWLRQAPGKGLEWVGVISYDGSNKFYADFVKGRFTISRDNSKNTLYLQMNSLRAEDTAVYYCARTPGSHFDYWGQGTLVTVSS
VL: QSVLTQPPSASGTPGQRVTISCSGSSSNIGNNAVNWYQQLPGTAPKLLIYYDDLLPSGVPDRFSGSKSGTSASLAISGLRSEDEADYYCSAWDDSLNGVVFGGGTKLTVLG
notes: mIgG1, Lambda

- hIL2RA ELISA Binding: Ratio to Isotpye (human IL2Ra): 398 ratio
B2: TPP-18068 (antibody, mouse IgG1)
heavy: EVQLLESGGGLVQPGGSLRLSCAASGFTFSSYGMHWVRQAPGKGLEWVSVISYDGSYKYYADSVKGRFTISRDNSKNTLYLQMNSLRAEDTAVYYCAAGVPDYWGQGTLVTVSSAKTTPPSVYPLAPGSAAQTNSMVTLGCLVKGYFPEPVTVTWNSGSLSSGVHTFPAVLQSDLYTLSSSVTVPSSTWPSETVTCNVAHPASSTKVDKKIVPRDCGCKPCICTVPEVSSVFIFPPKPKDVLTITLTPKVTCVVVDISKDDPEVQFSWFVDDVEVHTAQTQPREEQFNSTFRSVSELPIMHQDWLNGKEFKCRVNSAAFPAPIEKTISKTKGRPKAPQVYTIPPPKEQMAKDKVSLTCMITDFFPEDITVEWQWNGQPAENYKNTQPIMDTDGSYFVYSKLNVQKSNWEAGNTFTCSVLHEGLHNHHTEKSLSHSPGK
light: QSVLTQPPSASGTPGQRVTISCTGSSSNIGAGYDVHWYQQLPGTAPKLLIYSNNERPSGVPDRFSGSKSGTSASLAISGLRSEDEADYYCAAWDDSLNGPVFGGGTKLTVLGQPKSSPSVTLFPPSSEELETNKATLVCTITDFYPGVVTVDWKVDGTPVTQGMETTQPSKQSNNKYMASSYLTLTARAWERHSSYSCQVTHEGHTVEKSLSRADCS
notes: mIgG1, Lambda

- Kd (cynomolgus IL-11 [3]): 3.8 nM
- Kd (murine IL-11): 0.35 nM
- Kd (rat IL-11 [4]): 0.29 nM
B3: TPP-18068 (antibody, mouse IgG1)
heavy: EVQLLESGGGLVQPGGSLRLSCAASGFTFSSYGMHWVRQAPGKGLEWVSVISYDGSYKYYADSVKGRFTISRDNSKNTLYLQMNSLRAEDTAVYYCAAGVPDYWGQGTLVTVSSAKTTPPSVYPLAPGSAAQTNSMVTLGCLVKGYFPEPVTVTWNSGSLSSGVHTFPAVLQSDLYTLSSSVTVPSSTWPSETVTCNVAHPASSTKVDKKIVPRDCGCKPCICTVPEVSSVFIFPPKPKDVLTITLTPKVTCVVVDISKDDPEVQFSWFVDDVEVHTAQTQPREEQFNSTFRSVSELPIMHQDWLNGKEFKCRVNSAAFPAPIEKTISKTKGRPKAPQVYTIPPPKEQMAKDKVSLTCMITDFFPEDITVEWQWNGQPAENYKNTQPIMDTDGSYFVYSKLNVQKSNWEAGNTFTCSVLHEGLHNHHTEKSLSHSPGK
light: QSVLTQPPSASGTPGQRVTISCTGSSSNIGAGYDVHWYQQLPGTAPKLLIYSNNERPSGVPDRFSGSKSGTSASLAISGLRSEDEADYYCAAWDDSLNGPVFGGGTKLTVLGQPKSSPSVTLFPPSSEELETNKATLVCTITDFYPGVVTVDWKVDGTPVTQGMETTQPSKQSNNKYMASSYLTLTARAWERHSSYSCQVTHEGHTVEKSLSRADCS
notes: mIgG1, Lambda
